System: Escherichia coli TOP10
Assay: shrunken log2 fold change of peptide-encoding DNA abundance (4.5 h post-induction vs induction); higher = less antimicrobial activity (less host growth inhibition)
Settings: time post-induction: 4.5 h; library: site-saturation at positions 5, 18, 19, 20
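Also: peptides expressed intracellularly from a pBAD plasmid library in pooled LB shake-flask culture, induced with 0.3% L-arabinose, DNA abundance read by NGS, three biological replicates, DESeq2 with apeglm shrinkage.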

RRIRYRPPRLPRPRPRPRCRPRP
shrunken log2 fold change: -0.26

RRIRYRPPRLPRPRPRPRCTPRP
shrunken log2 fold change: -0.407

RRIRYRPPRLPRPRPRPRDKPRP
shrunken log2 fold change: -0.667

RRIRYRPPRLPRPRPRPRDNPRP
shrunken log2 fold change: -0.712

RRIRYRPPRLPRPRPRPREMPRP
shrunken log2 fold change: -0.126

RRIRYRPPRLPRPRPRPRETPRP
shrunken log2 fold change: -0.0404

RRIRYRPPRLPRPRPRPRHEPRP
shrunken log2 fold change: -0.802

RRIRYRPPRLPRPRPRPRIMPRP
shrunken log2 fold change: -1.06

RRIRYRPPRLPRPRPRPRIQPRP
shrunken log2 fold change: -0.203

RRIRYRPPRLPRPRPRPRKIPRP
shrunken log2 fold change: -0.483

RRIRYRPPRLPRPRPRPRQEPRP
shrunken log2 fold change: -0.0183

RRIRYRPPRLPRPRPRPRQIPRP
shrunken log2 fold change: -0.137

RRIRYRPPRLPRPRPRPRYKPRP
shrunken log2 fold change: -0.451

RRIRYRPPRLPRPRPRPSADPRP
shrunken log2 fold change: -0.18

RRIRYRPPRLPRPRPRPSAPPRP
shrunken log2 fold change: -0.353

RRIRYRPPRLPRPRPRPSATPRP
shrunken log2 fold change: -0.104

RRIRYRPPRLPRPRPRPSAVPRP
shrunken log2 fold change: -0.175

RRIRYRPPRLPRPRPRPSCCPRP
shrunken log2 fold change: -0.472

RRIRYRPPRLPRPRPRPSCWPRP
shrunken log2 fold change: -0.349

RRIRYRPPRLPRPRPRPSDPPRP
shrunken log2 fold change: -0.374

RRIRYRPPRLPRPRPRPSFQPRP
shrunken log2 fold change: -1.13

RRIRYRPPRLPRPRPRPSGMPRP
shrunken log2 fold change: -0.0611

RRIRYRPPRLPRPRPRPSHWPRP
shrunken log2 fold change: -0.225

RRIRYRPPRLPRPRPRPSKSPRP
shrunken log2 fold change: -0.257

RRIRYRPPRLPRPRPRPSLVPRP
shrunken log2 fold change: -0.291

RRIRYRPPRLPRPRPRPSPNPRP
shrunken log2 fold change: -1.34

RRIRYRPPRLPRPRPRPSPPPRP
shrunken log2 fold change: -0.469

RRIRYRPPRLPRPRPRPSPQPRP
shrunken log2 fold change: -0.195

RRIRYRPPRLPRPRPRPSQAPRP
shrunken log2 fold change: -0.0185

RRIRYRPPRLPRPRPRPSSIPRP
shrunken log2 fold change: -0.141

RRIRYRPPRLPRPRPRPSTIPRP
shrunken log2 fold change: -0.324

RRIRYRPPRLPRPRPRPSVLPRP
shrunken log2 fold change: -0.444

RRIRYRPPRLPRPRPRPSVPPRP
shrunken log2 fold change: -0.497

RRIRYRPPRLPRPRPRPSVQPRP
shrunken log2 fold change: -0.065

RRIRYRPPRLPRPRPRPSWIPRP
shrunken log2 fold change: -0.341

RRIRYRPPRLPRPRPRPSWNPRP
shrunken log2 fold change: -1.04

RRIRYRPPRLPRPRPRPSWRPRP
shrunken log2 fold change: -0.137

RRIRYRPPRLPRPRPRPTCDPRP
shrunken log2 fold change: -0.424

RRIRYRPPRLPRPRPRPTCPPRP
shrunken log2 fold change: -0.434

RRIRYRPPRLPRPRPRPTDHPRP
shrunken log2 fold change: -0.254

RRIRYRPPRLPRPRPRPTEAPRP
shrunken log2 fold change: 0.0329

RRIRYRPPRLPRPRPRPTEDPRP
shrunken log2 fold change: -0.166

RRIRYRPPRLPRPRPRPTGEPRP
shrunken log2 fold change: -0.0166

RRIRYRPPRLPRPRPRPTHGPRP
shrunken log2 fold change: -0.1

RRIRYRPPRLPRPRPRPTKEPRP
shrunken log2 fold change: -0.00889

RRIRYRPPRLPRPRPRPTLAPRP
shrunken log2 fold change: 0.239

RRIRYRPPRLPRPRPRPTLCPRP
shrunken log2 fold change: -0.239

RRIRYRPPRLPRPRPRPTLLPRP
shrunken log2 fold change: -0.703

RRIRYRPPRLPRPRPRPTLMPRP
shrunken log2 fold change: -0.301

RRIRYRPPRLPRPRPRPTLRPRP
shrunken log2 fold change: -0.484

RRIRYRPPRLPRPRPRPTMCPRP
shrunken log2 fold change: -0.159

RRIRYRPPRLPRPRPRPTMLPRP
shrunken log2 fold change: -0.54

RRIRYRPPRLPRPRPRPTNLPRP
shrunken log2 fold change: -0.661

RRIRYRPPRLPRPRPRPTPHPRP
shrunken log2 fold change: -0.181

RRIRYRPPRLPRPRPRPTQPPRP
shrunken log2 fold change: 0.409

RRIRYRPPRLPRPRPRPTRAPRP
shrunken log2 fold change: 0.144

RRIRYRPPRLPRPRPRPTREPRP
shrunken log2 fold change: -0.145

RRIRYRPPRLPRPRPRPTTGPRP
shrunken log2 fold change: -0.549

RRIRYRPPRLPRPRPRPTVCPRP
shrunken log2 fold change: -0.0618

RRIRYRPPRLPRPRPRPTVSPRP
shrunken log2 fold change: -0.288

RRIRYRPPRLPRPRPRPTWCPRP
shrunken log2 fold change: -0.544

RRIRYRPPRLPRPRPRPTWYPRP
shrunken log2 fold change: -0.168

RRIRYRPPRLPRPRPRPTYQPRP
shrunken log2 fold change: -0.00459

RRIRYRPPRLPRPRPRPVAAPRP
shrunken log2 fold change: 0.149

RRIRYRPPRLPRPRPRPVALPRP
shrunken log2 fold change: -0.404

RRIRYRPPRLPRPRPRPVCSPRP
shrunken log2 fold change: -0.484

RRIRYRPPRLPRPRPRPVDMPRP
shrunken log2 fold change: -0.0154

RRIRYRPPRLPRPRPRPVERPRP
shrunken log2 fold change: 0.00806

RRIRYRPPRLPRPRPRPVESPRP
shrunken log2 fold change: -0.0746

RRIRYRPPRLPRPRPRPVGIPRP
shrunken log2 fold change: 0.177

RRIRYRPPRLPRPRPRPVHPPRP
shrunken log2 fold change: -0.186

RRIRYRPPRLPRPRPRPVHYPRP
shrunken log2 fold change: -0.0657

RRIRYRPPRLPRPRPRPVKAPRP
shrunken log2 fold change: -0.0854

RRIRYRPPRLPRPRPRPVLNPRP
shrunken log2 fold change: -0.258

RRIRYRPPRLPRPRPRPVLPPRP
shrunken log2 fold change: -0.511

RRIRYRPPRLPRPRPRPVNHPRP
shrunken log2 fold change: -0.073

RRIRYRPPRLPRPRPRPVNQPRP
shrunken log2 fold change: -0.058

RRIRYRPPRLPRPRPRPVNWPRP
shrunken log2 fold change: -0.0321

RRIRYRPPRLPRPRPRPVQFPRP
shrunken log2 fold change: -0.00142

RRIRYRPPRLPRPRPRPVQIPRP
shrunken log2 fold change: -0.146

RRIRYRPPRLPRPRPRPVQQPRP
shrunken log2 fold change: -0.00101

RRIRYRPPRLPRPRPRPVQYPRP
shrunken log2 fold change: -0.0125

RRIRYRPPRLPRPRPRPVRYPRP
shrunken log2 fold change: -0.157

RRIRYRPPRLPRPRPRPVVSPRP
shrunken log2 fold change: -0.595

RRIRYRPPRLPRPRPRPVWHPRP
shrunken log2 fold change: -0.0131

RRIRYRPPRLPRPRPRPVWTPRP
shrunken log2 fold change: 0.0188

RRIRYRPPRLPRPRPRPVYHPRP
shrunken log2 fold change: -0.586

RRIRYRPPRLPRPRPRPWAEPRP
shrunken log2 fold change: 0.0276

RRIRYRPPRLPRPRPRPWCCPRP
shrunken log2 fold change: -0.207

RRIRYRPPRLPRPRPRPWFGPRP
shrunken log2 fold change: -0.0933

RRIRYRPPRLPRPRPRPWFPPRP
shrunken log2 fold change: -0.523

RRIRYRPPRLPRPRPRPWGLPRP
shrunken log2 fold change: -0.0143

RRIRYRPPRLPRPRPRPWGSPRP
shrunken log2 fold change: -0.482

RRIRYRPPRLPRPRPRPWHMPRP
shrunken log2 fold change: -0.311

RRIRYRPPRLPRPRPRPWIRPRP
shrunken log2 fold change: -0.371

RRIRYRPPRLPRPRPRPWKVPRP
shrunken log2 fold change: -0.498

RRIRYRPPRLPRPRPRPWNFPRP
shrunken log2 fold change: -0.00304

RRIRYRPPRLPRPRPRPWNHPRP
shrunken log2 fold change: -0.00776

RRIRYRPPRLPRPRPRPWPFPRP
shrunken log2 fold change: -0.218

RRIRYRPPRLPRPRPRPWPQPRP
shrunken log2 fold change: 0.0526

RRIRYRPPRLPRPRPRPWQDPRP
shrunken log2 fold change: -0.122

RRIRYRPPRLPRPRPRPWQNPRP
shrunken log2 fold change: -0.103

RRIRYRPPRLPRPRPRPWREPRP
shrunken log2 fold change: 0.0494

RRIRYRPPRLPRPRPRPWRVPRP
shrunken log2 fold change: 0.0112

RRIRYRPPRLPRPRPRPWRYPRP
shrunken log2 fold change: 0.026

RRIRYRPPRLPRPRPRPWTAPRP
shrunken log2 fold change: -0.283

RRIRYRPPRLPRPRPRPWVQPRP
shrunken log2 fold change: -0.544

RRIRYRPPRLPRPRPRPWWFPRP
shrunken log2 fold change: -0.195

RRIRYRPPRLPRPRPRPWWIPRP
shrunken log2 fold change: -0.00327

RRIRYRPPRLPRPRPRPYCNPRP
shrunken log2 fold change: -0.515

RRIRYRPPRLPRPRPRPYCQPRP
shrunken log2 fold change: -0.465

RRIRYRPPRLPRPRPRPYGIPRP
shrunken log2 fold change: -0.064

RRIRYRPPRLPRPRPRPYHAPRP
shrunken log2 fold change: -0.194

RRIRYRPPRLPRPRPRPYHDPRP
shrunken log2 fold change: -0.386

RRIRYRPPRLPRPRPRPYHQPRP
shrunken log2 fold change: -0.662

RRIRYRPPRLPRPRPRPYHTPRP
shrunken log2 fold change: -0.0274

RRIRYRPPRLPRPRPRPYITPRP
shrunken log2 fold change: -0.529

RRIRYRPPRLPRPRPRPYLEPRP
shrunken log2 fold change: -1.7

RRIRYRPPRLPRPRPRPYMGPRP
shrunken log2 fold change: -0.019

RRIRYRPPRLPRPRPRPYNMPRP
shrunken log2 fold change: -1.09

RRIRYRPPRLPRPRPRPYNVPRP
shrunken log2 fold change: -0.0198

RRIRYRPPRLPRPRPRPYPHPRP
shrunken log2 fold change: -0.112

RRIRYRPPRLPRPRPRPYPWPRP
shrunken log2 fold change: 0.0116

RRIRYRPPRLPRPRPRPYQKPRP
shrunken log2 fold change: -0.0257

RRIRYRPPRLPRPRPRPYRAPRP
shrunken log2 fold change: -0.0919

RRIRYRPPRLPRPRPRPYSDPRP
shrunken log2 fold change: -0.237

RRIRYRPPRLPRPRPRPYSLPRP
shrunken log2 fold change: -0.335

Source: the supplement of paper PMC9112550, “Optimization of the antimicrobial peptide Bac7 by deep mutational scanning” (BMC Biology, 2022)
